# Patent US20250163164A1 (LANOVA MEDICINES DEVELOPMENT, published 2025)
# Positions count from the first letter of the chain named.
# T1: human interleukin 13 receptor subunit alpha 2 (IL-13RA2) (human, UniProt Q14627 27-380)
# T1 construct: whole, on cells; also called IL-13Rα2; CD213A2
# T1 sequence (looked up): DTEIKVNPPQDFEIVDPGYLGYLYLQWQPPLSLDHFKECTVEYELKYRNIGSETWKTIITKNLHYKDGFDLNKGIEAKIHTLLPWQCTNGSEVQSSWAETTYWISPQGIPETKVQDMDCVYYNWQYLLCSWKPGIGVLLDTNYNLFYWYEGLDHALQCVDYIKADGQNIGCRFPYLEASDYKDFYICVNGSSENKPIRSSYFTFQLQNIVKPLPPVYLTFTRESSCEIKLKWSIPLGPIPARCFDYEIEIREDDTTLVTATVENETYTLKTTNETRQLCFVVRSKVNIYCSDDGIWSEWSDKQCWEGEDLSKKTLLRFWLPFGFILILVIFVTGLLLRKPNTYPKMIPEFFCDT
# B1: 61H8C1 H2L2 hIgG1 (antibody, V domains shown)
# VH: QVQLVQSGAEVAKPGASVKVSCKASGYTFTSYWTQWIRQAPGQGLEGMGAIYPGDDDTSYNQKFKGRVTMTADTSTSTVYMELSSLRSEDTAVYYCARGATLLRPFPYWGQGTLVTVSS
# VL: DIQMTQSPSSLSTSVGDRVTITCKASQDVSTAVAWYQQKPGKSPKLLIYSASYRYTGVPSRFSGSGSGTDFTLTISSLQPEDFATYSCQQHYSIPPTFGQGTKLEIK
# notes: humanized, hIgG1
# B2: 61H8C1 H4L4 hIgG1 (antibody, V domains shown)
# VH: B1 VH with V20L, R38K, M48I, R67K, V68A, M70L, T74K, V79A, E82Q
# VL: B1 VL with Q3V, S60D, S63T, L73F, L78V, Q100G
# notes: humanized, hIgG1
# B3: 61H8C1 H3L1 hIgG1 (antibody, V domains shown)
# VH: B1 VH with M48I, V68A, M70L, T74K, E82Q
# VL: B1 VL with T13A, S43A, S87Y
# notes: humanized, hIgG1
# B4: 61H8C1 H3L3 hIgG1 (antibody, V domains shown)
# VH: B1 VH with M48I, V68A, M70L, T74K, E82Q
# VL: B1 VL with S60D, L73F, Q100G
# notes: humanized, hIgG1
# B5: 61H8C1 H1L4 hIgG1 (antibody, V domains shown)
# VH: B1 VH with A12K, I37V, G47W, A72R
# VL: B1 VL with Q3V, S60D, S63T, L73F, L78V, Q100G
# notes: humanized, hIgG1
# B6: 61H8C1 H4L2 hIgG1 (antibody, V domains shown)
# VH: B1 VH with V20L, R38K, M48I, R67K, V68A, M70L, T74K, V79A, E82Q
# VL: B1 VL
# notes: humanized, hIgG1
# B7: 61H8C1 H4L3 hIgG1 (antibody, V domains shown)
# VH: B1 VH with V20L, R38K, M48I, R67K, V68A, M70L, T74K, V79A, E82Q
# VL: B1 VL with S60D, L73F, Q100G
# notes: humanized, hIgG1
# B8: 61H8C1 H3L4 hIgG1 (antibody, V domains shown)
# VH: B1 VH with M48I, V68A, M70L, T74K, E82Q
# VL: B1 VL with Q3V, S60D, S63T, L73F, L78V, Q100G
# notes: humanized, hIgG1
# B9: 61H8C1 H1L1 hIgG1 (antibody, V domains shown)
# VH: B1 VH with A12K, I37V, G47W, A72R
# VL: B1 VL with T13A, S43A, S87Y
# notes: humanized, hIgG1
# B10: 61H8C1 H2L1 hIgG1 (antibody, V domains shown)
# VH: B1 VH
# VL: B1 VL with T13A, S43A, S87Y
# notes: humanized, hIgG1
# B11: 61H8C1 H1L3 hIgG1 (antibody, V domains shown)
# VH: B1 VH with A12K, I37V, G47W, A72R
# VL: B1 VL with S60D, L73F, Q100G
# notes: humanized, hIgG1
# B12: 61H8C1 H2L3 hIgG1 (antibody, V domains shown)
# VH: B1 VH
# VL: B1 VL with S60D, L73F, Q100G
# notes: humanized, hIgG1
# B13: 61H8C1 H1L2 hIgG1 (antibody, V domains shown)
# VH: B1 VH with A12K, I37V, G47W, A72R
# VL: B1 VL
# notes: humanized, hIgG1
# B14: 61H8C1 H3L2 hIgG1 (antibody, V domains shown)
# VH: B1 VH with M48I, V68A, M70L, T74K, E82Q
# VL: B1 VL
# notes: humanized, hIgG1
# B15: 61H8C1 H4L1 hIgG1 (antibody, V domains shown)
# VH: B1 VH with V20L, R38K, M48I, R67K, V68A, M70L, T74K, V79A, E82Q
# VL: B1 VL with T13A, S43A, S87Y
# notes: humanized, hIgG1
# B16: 61H8C1 H2L4 hIgG1 (antibody, V domains shown)
# VH: B1 VH
# VL: B1 VL with Q3V, S60D, S63T, L73F, L78V, Q100G
# notes: humanized, hIgG1
# B17: 57F8H3F1 H2L2 hIgG1 (antibody, V domains shown)
# VH: QVQLVQSGAEVVKPGASVKVSCKASGYTFTNYWMNWVRQAPGQGLEWIGRIDAYETETHYNQKFRDRVTMTVDTSTSTVYMELSSLRSEDTAVYYCARGYGHYYGVDYWGQGTLVTVSS
# VL: DIQMTQSPSSLSASVGDRVTITCRASENVGNFGISFVNWFQQKPGKAPKLLIYAASNLGSGDPSRFSGSGSGTDFTLTISSLQPEDFATYFCQQSKGVPWTFGQGTKVEIK
# notes: humanized, hIgG1
# B18: 57F8H3F1 H4L4 hIgG1 (antibody, V domains shown)
# VH: B17 VH with V20L, R38K, A40R, V68A, T69I, M70L, T74K, V79A, S84R
# VL: B17 VL with Q3V, M4L, V19A, A47P, S64A, Q104G, V108L
# notes: humanized, hIgG1
# B19: 72B4H4 H2L2 hIgG1 (antibody, V domains shown)
# VH: B17 VH with E55A, T56G, R65K, H102D, Y103A, V106M, Y108H
# VL: B17 VL with N28S, G30D, F32Y, V37M, N57R, L58Q, G97E
# notes: humanized, hIgG1
# B20: 57F8H3F1 H2L3 hIgG1 (antibody, V domains shown)
# VH: B17 VH
# VL: B17 VL with M4L, S64A, Q104G
# notes: humanized, hIgG1
# B21: 57F8H3F1 H4L1 hIgG1 (antibody, V domains shown)
# VH: B17 VH with V20L, R38K, A40R, V68A, T69I, M70L, T74K, V79A, S84R
# VL: B17 VL with F40Y, D62V, F91Y
# notes: humanized, hIgG1
# B22: 57F8H3F1 H3L3 hIgG1 (antibody, V domains shown)
# VH: B17 VH with V20L, R38K, V68A, M70L, T74K
# VL: B17 VL with M4L, S64A, Q104G
# notes: humanized, hIgG1
# B23: 57F8H3F1 H3L4 hIgG1 (antibody, V domains shown)
# VH: B17 VH with V20L, R38K, V68A, M70L, T74K
# VL: B17 VL with Q3V, M4L, V19A, A47P, S64A, Q104G, V108L
# notes: humanized, hIgG1
# B24: 57F8H3F1 H3L1 hIgG1 (antibody, V domains shown)
# VH: B17 VH with V20L, R38K, V68A, M70L, T74K
# VL: B17 VL with F40Y, D62V, F91Y
# notes: humanized, hIgG1
# B25: 57F8H3F1 H1L1 hIgG1 (antibody, V domains shown)
# VH: B17 VH with V12K, I48M, V72R
# VL: B17 VL with F40Y, D62V, F91Y
# notes: humanized, hIgG1
# B26: 72B4H4 H1L3 hIgG1 (antibody, V domains shown)
# VH: B17 VH with V12K, I48M, E55A, T56G, R65K, V72R, H102D, Y103A, V106M, Y108H
# VL: B17 VL with M4L, N28S, G30D, F32Y, V37M, N57R, L58Q, S64A, G97E, Q104G
# notes: humanized, hIgG1
# B27: 57F8H3F1 H4L3 hIgG1 (antibody, V domains shown)
# VH: B17 VH with V20L, R38K, A40R, V68A, T69I, M70L, T74K, V79A, S84R
# VL: B17 VL with M4L, S64A, Q104G
# notes: humanized, hIgG1
# B28: 57F8H3F1 H2L1 hIgG1 (antibody, V domains shown)
# VH: B17 VH
# VL: B17 VL with F40Y, D62V, F91Y
# notes: humanized, hIgG1
# B29: 72B4H4 H1L1 hIgG1 (antibody, V domains shown)
# VH: B17 VH with V12K, I48M, E55A, T56G, R65K, V72R, H102D, Y103A, V106M, Y108H
# VL: B17 VL with N28S, G30D, F32Y, V37M, F40Y, N57R, L58Q, D62V, F91Y, G97E
# notes: humanized, hIgG1
# B30: 57F8H3F1 H1L3 hIgG1 (antibody, V domains shown)
# VH: B17 VH with V12K, I48M, V72R
# VL: B17 VL with M4L, S64A, Q104G
# notes: humanized, hIgG1
# B31: 57F8H3F1 H1L4 hIgG1 (antibody, V domains shown)
# VH: B17 VH with V12K, I48M, V72R
# VL: B17 VL with Q3V, M4L, V19A, A47P, S64A, Q104G, V108L
# notes: humanized, hIgG1
# B32: 57F8H3F1 H1L2 hIgG1 (antibody, V domains shown)
# VH: B17 VH with V12K, I48M, V72R
# VL: B17 VL
# notes: humanized, hIgG1
# B33: 57F8H3F1 H2L4 hIgG1 (antibody, V domains shown)
# VH: B17 VH
# VL: B17 VL with Q3V, M4L, V19A, A47P, S64A, Q104G, V108L
# notes: humanized, hIgG1
# B34: 57F8H3F1 H4L2 hIgG1 (antibody, V domains shown)
# VH: B17 VH with V20L, R38K, A40R, V68A, T69I, M70L, T74K, V79A, S84R
# VL: B17 VL
# notes: humanized, hIgG1
# B35: 57F8H3F1 H3L2 hIgG1 (antibody, V domains shown)
# VH: B17 VH with V20L, R38K, V68A, M70L, T74K
# VL: B17 VL
# notes: humanized, hIgG1
# B36: 72B4H4 H1L2 hIgG1 (antibody, V domains shown)
# VH: B17 VH with V12K, I48M, E55A, T56G, R65K, V72R, H102D, Y103A, V106M, Y108H
# VL: B17 VL with N28S, G30D, F32Y, V37M, N57R, L58Q, G97E
# notes: humanized, hIgG1
# B37: 72B4H4 H1L4 hIgG1 (antibody, V domains shown)
# VH: B17 VH with V12K, I48M, E55A, T56G, R65K, V72R, H102D, Y103A, V106M, Y108H
# VL: DIVLTQSPSSLSASVGDRATITCRASESVDNYGISFMNWFQQKPGKPPKLLIYAASRQGSGDPARFSGSGSGTDFTLTISSLQPEDFATYFCQQSKEVPWTFGGGTKLEIK
# notes: humanized, hIgG1
# Target: T1, human interleukin 13 receptor subunit …
# Assay: FACS on A375 cells
# Experimental: A375 cells that endogenously expressed IL-13RA2, were harvested from flasks. 100 μl of 1×10⁶ cells/ml of cells were incubated with primary humanized antibodies in 4-fold serial dilutions starting from 200 nM to 0.003 nM for 30 minutes on ice. After being washed with 200 μl of FACS buffer twice, cells were incubated with secondary antibody for 30 minutes on ice. Cells were washed with 200 μl of FACS buffer twice and analyzed by FACS.
EC50,Top (MFI),Binder
0.15 nM,22400 MFI,B1
0.19 nM,21600 MFI,B2
0.15 nM,20600 MFI,B3
0.15 nM,20100 MFI,B4
0.17 nM,19800 MFI,B5
0.14 nM,21100 MFI,B6
0.18 nM,20800 MFI,B7
0.2 nM,22000 MFI,B8
0.14 nM,20300 MFI,B9
0.16 nM,22400 MFI,B10
0.2 nM,20000 MFI,B11
0.19 nM,22100 MFI,B12
0.15 nM,19600 MFI,B13
0.17 nM,22300 MFI,B14
0.17 nM,22200 MFI,B15
0.18 nM,21900 MFI,B16
0.89 nM,7090 MFI,B17
0.91 nM,7270 MFI,B18
1.48 nM,8700 MFI,B19

EC50,Top (MFI),Binder
0.92 nM,7010 MFI,B20
0.42 nM,7350 MFI,B21
1.62 nM,7610 MFI,B22
1.3 nM,7610 MFI,B23
0.71 nM,8160 MFI,B24
0.63 nM,7020 MFI,B25
1 nM,8900 MFI,B26
0.8 nM,7180 MFI,B27
0.38 nM,6910 MFI,B28
0.54 nM,8440 MFI,B29
0.81 nM,7540 MFI,B30
0.94 nM,7820 MFI,B31
0.78 nM,7510 MFI,B32
1.01 nM,7140 MFI,B33
0.75 nM,7340 MFI,B34
1.25 nM,7420 MFI,B35
0.81 nM,8540 MFI,B36
0.98 nM,9040 MFI,B37
